# In patent publication US20190248900A1 (Y BIOLOGICS, published 2019):
# Positions count from the first letter of the chain named.
# T1: ITGA6-Fc
# T1 construct: Fc fusion
# T1 sequence (P23229 whole entry, species assumed, looked up): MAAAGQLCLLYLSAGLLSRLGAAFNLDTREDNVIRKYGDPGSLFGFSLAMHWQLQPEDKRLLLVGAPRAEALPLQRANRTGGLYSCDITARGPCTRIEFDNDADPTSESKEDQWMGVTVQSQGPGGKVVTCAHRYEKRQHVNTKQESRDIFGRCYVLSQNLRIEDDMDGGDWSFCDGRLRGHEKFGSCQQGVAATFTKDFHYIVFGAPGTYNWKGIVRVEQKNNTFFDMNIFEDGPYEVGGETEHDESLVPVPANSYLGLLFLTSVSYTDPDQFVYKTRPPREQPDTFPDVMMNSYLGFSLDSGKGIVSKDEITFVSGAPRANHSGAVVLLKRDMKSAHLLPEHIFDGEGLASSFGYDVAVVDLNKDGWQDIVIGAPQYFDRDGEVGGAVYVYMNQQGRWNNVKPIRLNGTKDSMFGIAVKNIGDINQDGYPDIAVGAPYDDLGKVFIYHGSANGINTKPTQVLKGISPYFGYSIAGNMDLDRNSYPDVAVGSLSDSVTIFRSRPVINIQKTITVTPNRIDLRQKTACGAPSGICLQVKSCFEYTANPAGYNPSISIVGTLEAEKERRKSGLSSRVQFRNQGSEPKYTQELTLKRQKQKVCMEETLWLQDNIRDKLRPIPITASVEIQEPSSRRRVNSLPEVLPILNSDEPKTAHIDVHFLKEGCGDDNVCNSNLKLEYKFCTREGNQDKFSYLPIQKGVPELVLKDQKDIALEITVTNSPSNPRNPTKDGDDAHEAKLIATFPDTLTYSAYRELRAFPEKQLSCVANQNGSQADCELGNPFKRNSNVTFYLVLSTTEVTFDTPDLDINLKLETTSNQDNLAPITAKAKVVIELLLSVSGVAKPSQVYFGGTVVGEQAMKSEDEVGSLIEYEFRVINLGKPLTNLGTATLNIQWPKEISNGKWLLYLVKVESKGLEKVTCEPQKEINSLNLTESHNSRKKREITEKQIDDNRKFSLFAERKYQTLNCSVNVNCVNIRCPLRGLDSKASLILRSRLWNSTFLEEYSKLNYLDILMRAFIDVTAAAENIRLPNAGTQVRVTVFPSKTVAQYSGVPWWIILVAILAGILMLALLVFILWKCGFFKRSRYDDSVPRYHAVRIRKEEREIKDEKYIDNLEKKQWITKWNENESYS
# B1: PD1-45D6 (antibody, V domains shown)
# VH: QVQLVESGGGVVQPGRSLRLSCAASGFTFSSYAMHWVRQVPGKGLEWVAVISYDGNDKYYADSVKGRFTISRDNSKNTLYLQMNSLRAEDTAVYYCVPTTFEYWGQGSQVTVSS
# VL: DIVMTQTPLSLPVTPGEAASISCRSSQSLLDSDDGKTYLDWYLQKPGQSPQLLIYTLSYRASGVPDRFSGSGSGTEFNLRISRVEAEDVGIYYCMQRVEFPFTFGQGTKLDIK
# notes: scFv-phage in the screening ELISA; whole IgG in the other assays
# B2: PD1-49A2 (antibody, V domains shown)
# VH: QVQLVESGGGVVQPGRSLRLSCAASGFTFSSYAMHWVRQAPGKGLEWVAVISYDGSNKYYADSVKGRFTISRDNPKNTLYLQMNSLRAEDTAVYYCTTTTFDSWGRGTLVTVSS
# VL: DIVMTQSPLSLPVTPGEPASISCRSSQSLFDSDDGNTYLDWYLQKPGQSPQLLIYTLSHRASGVPDRFSGSGSGTDFTLKISRVEAEDVGIYYCLQRMGFPYTFGQGTKVEIK
# notes: scFv-phage in the screening ELISA; whole IgG in the other assays; also called Parent 49A2
# B3: PD1-52E8 (antibody, V domains shown)
# VH: QVQLVQSGGNLVQPGRSLRLSCAASGFTFDDYAMHWVRQAPGKGLEWVSGISWNSGTPGYADSVQGRFTISRDNAKNSLYLQMNSLRAEDTAVYYCARGHNYLDSSYYDYWGQGTLVTVSS
# VL: SYELTQPLSLSVAPGQTARITCSGDALSKEYSYWYQQKPGQAPVLVMYKDSERPSGIPERFSGSSSGTTVTLTISGVQAEDEADYYCQSVDSSDTSVVFGGGTKLTVL
# notes: as for B1
# B4: PD1-41C9 (antibody, V domains shown)
# VH: B2 VH with V2M, P75S, S85R, A88S, R106Q, V110I
# VL: B2 VL with S7T, P18A, F30L, D33E, E85A, I91L, V110L, E111D
# notes: as for B1
# Target: T2, PD-1-His (S1352, Y-Biologics) (UniProt Q15116 25-170, limits assumed)
# T2 construct: not shown: His tag
# Assay: competition ELISA: PD-L2-Fc coated, PD-1-His as binder, antibody as competitor
# Description: Human PD-1-Fc (S1420, Y-Biologics) or PD-L2-Fc (#10292-H02H, Sino) was added to wells of a 96-well immuno microplate (#439454, Thermo) and then washed three times with PBS containing 0.05% tween-20 (#P9416, Sigma-Aldrich), followed by allowing to stand in a cleaning solution containing 4% skim milk (#232120, Becton, Dickinson and Company) at room temperature for 1 hour to block non-specific binding. […] After the resulting product was subjected to the same washing method as above, the anti-Biotin-His antibody (#MA1-21315-BTIN, Thermo) diluted to 1:2000 was added to the well of the microplate, allowed to react at room temperature for 1 hour, streptavidin poly-HRP antibody (#21140, Pierce) diluted to 1:5000 was added to the well of microplate, reacted at room temperature for 1 hour and then washed in the same manner. 100 ul of a TMB substrate solution (#T0440, Sigma-Aldrich) was added to the reaction product, light was shielded, and the reaction product was allowed to stand at room temperature for 3 minutes, 50 μL of 2.5 M sulfuric acid (#S1478, Samchun) was added to stop the reaction, and absorbance was measured at 450 nm using a spectrophotometer (*GM3000, Glomax® Discover System Promega).
# T2 sequence (Q15116 25-170 limits assumed): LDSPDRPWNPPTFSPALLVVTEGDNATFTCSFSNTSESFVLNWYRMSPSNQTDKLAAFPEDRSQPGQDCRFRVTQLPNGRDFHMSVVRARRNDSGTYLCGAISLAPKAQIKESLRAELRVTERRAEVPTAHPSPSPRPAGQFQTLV
row,Binder,IC50 [nM]
1,B1,49.6
2,B2,59.7

# Target: T3, human PD-1 (NM_005018.2) over-expressed on cells (human, UniProt Q15116 25-288)
# T3 construct: whole, on cells; also called human PD-1 over-expressed on the cell surface; Jurkat cell line highly expressing human PD-1
# Assay: flow cytometry on cells over-expressing human PD-1, fit of Geometric Mean
# T3 sequence (Q15116 25-288): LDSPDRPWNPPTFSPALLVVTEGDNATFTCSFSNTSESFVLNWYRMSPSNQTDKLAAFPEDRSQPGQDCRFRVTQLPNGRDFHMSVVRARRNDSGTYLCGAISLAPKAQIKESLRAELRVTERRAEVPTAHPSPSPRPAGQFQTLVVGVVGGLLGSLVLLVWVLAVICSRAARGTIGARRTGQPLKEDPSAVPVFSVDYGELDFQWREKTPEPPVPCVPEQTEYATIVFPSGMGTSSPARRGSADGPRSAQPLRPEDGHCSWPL
Binder,Bmax,Kd [nM]
B1,1640,2.7
B2,3000,38.2

# Target: T4, PD1-his (Catalog Number 10377-H08H, Sino Biological Inc.) (UniProt Q15116 25-167)
# T4 construct: bought protein; not shown: His tag
# Assay: ELISA, 1 ug/ml
# T4 sequence (Q15116 25-167 limits assumed): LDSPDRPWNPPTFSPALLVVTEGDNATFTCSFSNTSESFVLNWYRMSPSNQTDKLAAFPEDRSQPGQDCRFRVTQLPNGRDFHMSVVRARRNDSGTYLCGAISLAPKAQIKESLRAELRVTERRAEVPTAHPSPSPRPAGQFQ
row,Binder,OD490
1,B1,3.8
2,B3,0.4
3,B4,3.2
4,B2,3.6

# Target: T5, M14
# T5 construct: also called PD1 mutant M14
# Assay: ELISA, 1 ug/ml
row,Binder,OD490
1,B1,3.9
2,B3,2.6
3,B4,3.5
4,B2,3.9

# Target: T6, M6
# T6 construct: also called PD1 mutant M6
# Assay: ELISA, 1 ug/ml
row,Binder,OD490
1,B1,3.9
2,B3,3.4
3,B4,3.6
4,B2,3.9

# Target: T7, M5-2
# T7 construct: also called PD1 mutant M5-2
# Assay: ELISA, 1 ug/ml
row,Binder,OD490
1,B1,3.9
2,B3,3.5
3,B4,3.6
4,B2,3.8

# Target: T8, M4
# T8 construct: also called PD1 mutant M4
# Assay: ELISA, 1 ug/ml
row,Binder,OD490
1,B1,3.9
2,B3,3.7
3,B4,3.2
4,B2,3.9

# Target: T9, M7-2
# T9 construct: also called PD1 mutant M7-2
# Assay: ELISA, 1 ug/ml
row,Binder,OD490
1,B1,4
2,B3,3.9
3,B4,3
4,B2,2.2

# Target: T10, M7-1
# T10 construct: also called PD1 mutant M7-1
# Assay: ELISA, 1 ug/ml
row,Binder,OD490
1,B1,1.3
2,B3,1.1
3,B4,1.2
4,B2,0.5

# Target: T11, M2-1
# T11 construct: also called PD1 mutant M2-1
# Assay: ELISA, 1 ug/ml
row,Binder,OD490
1,B1,3.9
2,B3,2.9
3,B4,3.4
4,B2,3.7

# Target: T1, ITGA6-Fc
# Assay: ELISA, 1 ug/ml
row,Binder,OD490
1,B1,0.5
2,B3,0.1
3,B4,0.5
4,B2,0.2

# Target: T12, M2-2
# T12 construct: also called PD1 mutant M2-2
# Assay: ELISA, 1 ug/ml
row,Binder,OD490
1,B1,3.8
2,B3,3.4
3,B4,3.2
4,B2,3.8

# Target: T13, M1-2
# T13 construct: also called PD1 mutant M1-2
# Assay: ELISA, 1 ug/ml
row,Binder,OD490
1,B1,3.9
2,B3,3.6
3,B4,3.2
4,B2,3.8

# Target: T14, M1-1
# T14 construct: also called PD1 mutant M1-1
# Assay: ELISA, 1 ug/ml
row,Binder,OD490
1,B1,3.8
2,B3,1.5
3,B4,3.1
4,B2,3.4

# Target: T15, monkey PD1 protein (monkey)
# T15 construct: also called monkey PD-1 proteins
# Assay: SPR ProteOn XPR36; format for monkey PD1 not described
Binder,Kd [nM],koff [s⁻¹],kon [M⁻¹ s⁻¹]
B1,0.001,1e-07,154000
B2,0.001,1e-07,168000
